According to publication PMC3848071 (Acta Naturae, 2013):

Legend:
MGL from P. gingivalis = MGL from P. gingivalis (Porphyromonas gingivalis, UniProt Q7MX71); conditions: read-out: MGL from P. gingivalis / Кm
MGL from C. tetani = molecular target: T1, MGL from C. tetani (Clostridium tetani, UniProt Q890V5); conditions: read-out: MGL from C. tetani / Кm
T1 construct: gene CTC_02530

MGL from C. sporogenes = molecular target: T2, MGL from C. sporogenes (Clostridium sporogenes, UniProt A0A7X5SZI3); type: biochemical; conditions: read-out: MGL from C. sporogenes / Кm
T2 construct: gene megL

CSCC[C@H](N)C(=O)O = assay: purified protein
[1] = system: N[C@@H](CSCc1ccccc1)C(=O)O; assay: purified protein
CCSC[C@H](N)C(=O)O = assay: purified protein
[2] = system: C[S+]([O-])CC[C@H](N)C(=O)O; assay: purified protein

## CCSCC[C@H](N)C(=O)O [S-Et-L-Hcy]
MGL from P. gingivalis
  Km: 930 µM
MGL from C. tetani
  Km: 545 µM
MGL from C. sporogenes
  Km: 278 µM

## MGL from C. tetani (Clostridium tetani E88)
CSCC[C@H](N)C(=O)O
  Km: 947 µM
  kcat/Km: 12700 M⁻¹ s⁻¹

## MGL from P. gingivalis (Porphyromonas gingivalis W83)
[1]
  Km: 1470 µM
  kcat/Km: 3940 M⁻¹ s⁻¹
CCSC[C@H](N)C(=O)O
  Km: 2170 µM
  kcat/Km: 3710 M⁻¹ s⁻¹
[2]
  Km: 12220 µM
  kcat/Km: 413 M⁻¹ s⁻¹
CSCC[C@H](N)C(=O)O
  Km: 1770 µM
  kcat/Km: 2200 M⁻¹ s⁻¹
